Results: US20110312881A1 (AMUNIX, published 2011)

Biological target: T1, XTEN_AM875-hGH (human, UniProt P01241 27-217)
T1 construct: Negative control in the IL-1 receptor ELISA
Test: ELISA, plate-coated mouse IL-1R/Fc
Procedure: To evaluate the activity of the IL-1ra-containing XTEN fusion proteins, an ELISA based receptor binding assay was used. Here the wells of a Costar 3690 assay plate were coated overnight with 50 ng per well of mouse IL-1 receptor fused to Fc domain of human IgG (IL-1R/Fc, R&D Systems). Subsequently the wells were blocked with 3% BSA to prevent nonspecific interactions with the solid phase. After thoroughly washing the wells, a dilution series of either IL-1ra-XTEN_AM875, XTEN_AM875-IL-1ra, or IL-1ra (anakinra) was applied to the wells. The binding reaction was allowed to proceed for 2 hr at room temperature. Unbound Il-1ra was removed by repeated washing. The bound IL-1ra ad IL-1ra-XTEn fusions were detected with a biotinylated anti-human II-1ra antibody and a horseradish peroxidase-conjugated streptavidin. […] The absorbance of each well at 450 nm and 570 nm was recorded on a SpectrMax 384Plus spectrophotometer. The corrected absorbance signal (Abscorr=Abs₄₅₀ₙₘ−Abs₅₇₀ₙₘ) was plotted as a function of IL-1ra-XTEN or IL-1ra concentration to produce a binding isotherm as shown in FIG. 17.
To estimate the binding affinity of each fusion protein for the IL-1 receptor, the binding data was fit to a sigmoidal dose-response curve. From the fit of the data an EC50 (the concentration of IL-1ra or IL-1ra-XTEN at which the signal is half maximal) for each construct was determined.

T1 sequence (P01241 other isoform, or with tags, fused parts or gaps limits assumed): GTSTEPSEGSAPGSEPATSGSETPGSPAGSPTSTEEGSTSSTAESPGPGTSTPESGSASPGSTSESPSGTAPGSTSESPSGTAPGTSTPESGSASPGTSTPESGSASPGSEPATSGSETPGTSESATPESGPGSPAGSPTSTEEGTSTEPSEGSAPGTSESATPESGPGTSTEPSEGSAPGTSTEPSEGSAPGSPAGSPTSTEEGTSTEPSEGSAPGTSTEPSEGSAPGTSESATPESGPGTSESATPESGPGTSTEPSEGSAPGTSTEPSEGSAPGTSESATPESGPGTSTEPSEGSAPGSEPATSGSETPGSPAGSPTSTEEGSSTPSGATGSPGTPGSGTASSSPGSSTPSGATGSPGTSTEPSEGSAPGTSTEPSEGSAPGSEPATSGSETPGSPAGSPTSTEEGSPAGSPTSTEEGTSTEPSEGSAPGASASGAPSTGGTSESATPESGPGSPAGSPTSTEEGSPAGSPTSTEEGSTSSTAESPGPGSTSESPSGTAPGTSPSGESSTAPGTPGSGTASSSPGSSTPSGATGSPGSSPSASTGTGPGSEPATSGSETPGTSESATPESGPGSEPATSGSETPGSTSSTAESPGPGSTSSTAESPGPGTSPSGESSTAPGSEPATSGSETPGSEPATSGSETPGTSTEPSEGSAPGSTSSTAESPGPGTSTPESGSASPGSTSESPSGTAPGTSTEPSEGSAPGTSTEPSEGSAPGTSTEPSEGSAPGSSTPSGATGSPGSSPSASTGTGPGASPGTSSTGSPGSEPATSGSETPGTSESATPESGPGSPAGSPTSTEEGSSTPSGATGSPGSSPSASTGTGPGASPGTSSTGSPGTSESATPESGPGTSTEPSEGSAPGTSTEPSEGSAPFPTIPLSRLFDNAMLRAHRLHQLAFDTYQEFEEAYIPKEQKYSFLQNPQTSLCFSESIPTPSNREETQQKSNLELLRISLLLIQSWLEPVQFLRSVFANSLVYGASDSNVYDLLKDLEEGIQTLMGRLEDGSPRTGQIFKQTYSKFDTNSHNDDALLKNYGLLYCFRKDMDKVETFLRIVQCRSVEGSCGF

binding result: no binding
B1: mouse IL-1 receptor fused to Fc domain of human IgG (IL-1R/Fc, R&D Systems) (Fc fusion, UniProt P13504 20-338, looked up)
chain: LEIDVCTEYPNQIVLFLSVNEIDIRKCPLTPNKMHGDTIIWYKNDSKTPISADRDSRIHQQNEHLWFVPAKVEDSGYYYCIVRNSTYCLKTKVTVTVLENDPGLCYSTQATFPQRLHIAGDGSLVCPYVSYFKDENNELPEVQWYKNCKPLLLDNVSFFGVKDKLLVRNVAEEHRGDYICRMSYTFRGKQYPVTRVIQFITIDENKRDRPVILSPRNETIEADPGSMIQLICNVTGQFSDLVYWKWNGSEIEWNDPFLAEDYQFVEHPSTKRKYTLITTLNISEVKSQFYRYPFICVVKNTNIFESAHVQLIYPVPDFK
notes: Bought reagent, coated on the plate at 50 ng per well; not shown: Fc domain of human IgG
